Laboratory results published in patent US20230417748A1 (GREEN CROSS, published 2023).

Target: SARS-CoV-2 spike protein (SARS-CoV-2, UniProt P0DTC2 14-1213)

B1: M4-4 (antibody, V domains shown)
VH: EVQLVESGGGLVKPGGSLRLSCAASGFTFSSRGMSWVRQAPGKGLEWVSTISFGDIYTYYPDSVKGRFTISRDNAKNSLYLQMNSLRAEDTAVYYCARPNDGYFDYWGQGTLVTVSS
VL: DIVMTQSPATLSVSPGERATLSCKASQDVSTDVAWYQQKPGQAPRLLIYWASTRHTGVPDRFSGSGSGTDFTLTISSLQSEDFAVYYCQQHYSTPWTFGGGTKVEIKR
- dissociation constant against REGN10933 and REGN10987: ~10 fold
